Laboratory results published in patent US7897573B2, “Selective VPAC2 receptor peptide agonists” (priority 2005, dated 2011).

Tests used:
[1] = target: T1, Rat VPAC2 Receptor (Rattus norvegicus, UniProt P35000); assay: DiscoveRx cAMP potency, CHO-PO cells transiently transfected with rat VPAC2 receptor; type: cell-based; conditions: cAMP generation
T1 construct: expressed in transfected cells; host or cells: CHO-PO (transient, Lipofectamine)
T1 sequence (P35000 23-437): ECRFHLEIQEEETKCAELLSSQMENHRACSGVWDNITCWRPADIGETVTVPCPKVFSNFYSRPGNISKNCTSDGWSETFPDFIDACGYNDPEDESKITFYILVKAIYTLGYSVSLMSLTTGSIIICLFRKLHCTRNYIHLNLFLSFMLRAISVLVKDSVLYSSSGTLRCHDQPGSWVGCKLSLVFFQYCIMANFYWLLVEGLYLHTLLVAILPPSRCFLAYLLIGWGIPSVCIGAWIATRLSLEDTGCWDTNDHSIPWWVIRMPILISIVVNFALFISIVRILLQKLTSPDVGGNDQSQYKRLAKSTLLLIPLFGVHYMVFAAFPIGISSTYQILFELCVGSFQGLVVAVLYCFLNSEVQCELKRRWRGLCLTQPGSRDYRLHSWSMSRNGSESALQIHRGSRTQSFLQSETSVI
Procedure: (§1) DiscoveRx: CHO-PO cells are transiently transfected with rat VPAC1 or VPAC2 receptor DNA using commercially available transfection reagents (Lipofectamine from Invitrogen). The cells are seeded at a density of 10,000/well in a 96-well plate and are allowed to grow for 3 days in […] culture medium At day 3, the assay is performed.
(§2) On the day of the experiment, the medium is removed. Also, the cells are washed twice. The cells are incubated in assay buffer plus IBMX for 15 minutes at room temperature. Afterwards, the stimuli are added and are dissolved in assay buffer. The stimuli are present for 30 minutes. Then, the assay buffer is gently removed. The cell lysis reagent of the DiscoveRx cAMP kit is added. Thereafter, the standard protocol for developing the cAMP signal as described by the manufacturer is used (DiscoveRx Inc., USA). EC50 values for cAMP generation are calculated from the raw signal or are based on absolute cAMP levels as determined by a standard curve performed on each plate.
(§3) Results for each agonist are the mean of two independent runs. Rat VPAC1 and VPAC2 results are only generated using the DiscoveRx assay.

[2] = target: T2, Rat VPAC1 Receptor (Rattus norvegicus, UniProt P30083); assay: DiscoveRx cAMP potency, CHO-PO cells transiently transfected with rat VPAC1 receptor; type: cell-based; conditions: cAMP generation
T2 construct: expressed in transfected cells; host or cells: CHO-PO (transient, Lipofectamine)
T2 sequence (P30083 31-459): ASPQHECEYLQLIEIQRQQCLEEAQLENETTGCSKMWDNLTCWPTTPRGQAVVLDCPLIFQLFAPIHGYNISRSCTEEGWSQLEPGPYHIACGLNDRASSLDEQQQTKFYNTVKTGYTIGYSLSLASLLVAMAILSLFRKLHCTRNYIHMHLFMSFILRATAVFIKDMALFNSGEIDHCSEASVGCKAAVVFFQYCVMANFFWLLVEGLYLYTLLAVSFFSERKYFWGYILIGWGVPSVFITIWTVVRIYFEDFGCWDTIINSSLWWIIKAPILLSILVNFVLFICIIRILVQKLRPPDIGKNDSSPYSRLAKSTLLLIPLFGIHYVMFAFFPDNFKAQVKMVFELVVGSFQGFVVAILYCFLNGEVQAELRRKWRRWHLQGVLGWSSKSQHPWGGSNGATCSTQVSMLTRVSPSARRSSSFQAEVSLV
Procedure: as §1, §2, §3

[3] = target: T3, Human VPAC2 Receptor (Homo sapiens, UniProt P41587); assay: Alpha screen cAMP potency at human VPAC2 receptor; type: cell-based; conditions: cAMP generation; read-out: Human VPAC2 Receptor: Alphascreen (EC50; nM)
T3 sequence (P41587 24-438): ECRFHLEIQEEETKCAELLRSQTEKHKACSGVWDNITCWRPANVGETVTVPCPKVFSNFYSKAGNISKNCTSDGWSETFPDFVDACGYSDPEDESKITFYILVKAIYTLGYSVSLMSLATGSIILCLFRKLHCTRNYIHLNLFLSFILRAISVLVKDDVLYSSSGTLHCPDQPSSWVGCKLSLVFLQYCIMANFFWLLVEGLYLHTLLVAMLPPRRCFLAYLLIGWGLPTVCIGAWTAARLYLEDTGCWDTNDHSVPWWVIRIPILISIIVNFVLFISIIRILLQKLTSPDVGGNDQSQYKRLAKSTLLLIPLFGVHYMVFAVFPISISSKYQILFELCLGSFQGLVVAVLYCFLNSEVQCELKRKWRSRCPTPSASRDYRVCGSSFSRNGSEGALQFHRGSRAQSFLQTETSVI
Procedure: Alpha screen: Cells are washed in the culture flask once with PBS. Then, the cells are rinsed with enzyme free dissociation buffer. The dissociated cells are removed. The cells are then spun down and washed in stimulation buffer. For each data point, 50,000 cells suspended in stimulation buffer are used. To this buffer, Alpha screen acceptor beads are added along with the stimuli. This mixture is incubated for 60 minutes. Lysis buffer and Alpha screen donor beads are added and are incubated for 60 to 120 minutes. The Alpha screen signal (indicative of intracellular cAMP levels) is read in a suitable instrument (e.g. AlphaQuest from Perkin-Elmer). Steps including Alpha screen donor and acceptor beads are performed in reduced light. The EC50 for cAMP generation is calculated from the raw signal or is based on absolute cAMP levels as determined by a standard curve performed on each plate.
The tested peptide concentrations are: 10000, 1000, 100, 10, 3, 1, 0.1, 0.01, 0.003, 0.001, 0.0001 and 0.00001 nM.

[4] = target: T3, Human VPAC2 Receptor; assay: Filter binding assay, 125I-labeled VIP, membranes of stable VPAC2 cell line; conditions: 125I-labeled VIP tracer
Procedure: For this assay, the solutions and equipment include:
Presoak solution: 0.5% Polyethyleneamine in Aqua dest
Buffer for flushing filter plates: 25 mM HEPES pH 7.4
Blocking buffer: 25 mM HEPES pH 7.4; 0.2% protease free BSA
Assay buffer: 25 mM HEPES pH 7.4; 0.5% protease free BSA
Dilution and assay plate: PS-Microplate, U form
Filtration Plate Multiscreen FB Opaque Plate; […] Type B Glasfiber filter
In order to prepare the filter plates, the presoak solution is aspirated by vacuum filtration. The plates are flushed twice with 200 μL flush buffer. 200 μL blocking buffer is added to the filter plate. The filter plate is then incubated with 200 μL presoak solution for 1 hour at room temperature.
The assay plate is filled with 25 μL assay buffer, 25 μL membranes (2.5 μg) suspended in assay buffer, 25 μL agonist in assay buffer, and 25 μL tracer (about 40000 cpm) in assay buffer. The filled plate is incubated for 1 hour with shaking.
The transfer from assay plate to filter plate is conducted. The blocking buffer is aspirated by vacuum filtration and washed two times with flush buffer. 90 μL is transferred from the assay plate to the filter plate. The 90 μL transferred from assay plate is aspirated and washed three times with 200 μL flush buffer. The plastic support is removed. It is dried for 1 hour at 60° C. 30 μL Microscint is added. The count is performed.

Row | Substance | EC50 [1] [nM] | EC50 [2] [nM] | EC50 [3] [nM] | IC50 [4] [nM]
1 | C6-HSDAVFTEQY(OMe)TOrnLRAibQC(PEG40K)AAbuAibOrnY(OMe)LQSIOrnOrnGGPSSGAPPPS-NH2 (HSDAVFTEQYTXLRXQCAXXXYLQSIXXGGPSSGAPPPS; C6 acyl, non-natural residues, PEG40K, C-terminal amide; Synthetic sequence PEGylated VPAC2 receptor agonist) [Agonist P586] | 187 | 502 | 122 | 
2 | C6-HSDAVFTEQY(OMe)TOrnLRAibQVAAAibOrnYAibQSIOrnOrnGGPSSGAPPPC(PEG40K)-NH2 (HSDAVFTEQYTXLRXQVAAXXYXQSIXXGGPSSGAPPPC; C6 acyl, PEG40K on Cys, C-terminal amide; Synthetic sequence PEGylated VPAC2 receptor agonist) [Agonist P507] | 94.9 | > 1000 | 27.1 | 
3 | C6-HSDAVFTEQY(OMe)TOrnLRAibQC(PEG40K)AAbuAibOrnY(OMe)LQAibIOrnOrnGGPSSGAPPPS-NH2 (HSDAVFTEQYTXLRXQCAXXXYLQXIXXGGPSSGAPPPS; C6 acyl, non-natural residues, PEG40K, C-terminal amide; Synthetic sequence PEGylated VPAC2 receptor agonist) [Agonist P578] | 306 | 269 | 205 | 
4 | C6-HSDAVFTEK(CO(CH2)2SPEG40K)Y(OMe)TOrnLRAibQVAAAibOrnYLQSIOrnOrnGGPSSGAPPPS-NH2 (HSDAVFTEXYTXLRXQVAAXXYLQSIXXGGPSSGAPPPS; C6 acyl; PEG40K; non-natural residues; amide; Synthetic sequence PEGylated VPAC2 receptor peptide agonist) [Agonist P451] |  |  | 68.6 | 596
5 | C6-HSDAVFTEQY(OMe)TOrnLRAibQK(WPEG40K)AAAibOrnYLQSIOrnOrnGGPSSGAPPPS-NH2 (HSDAVFTEQYTXLRXQXAAXXYLQSIXXGGPSSGAPPPS; C6 acyl, PEG40K on Lys, C-terminal amide; Synthetic sequence PEGylated VPAC2 receptor agonist) [Agonist P533] |  |  |  | 959
6 | C6-HSDAVFTEQY(OMe)TOrnLRAibQLAAbuAibOrnY(OMe)LQSIOrnC(PEG20K)OrnGGPSSGAPPPC(PEG20K)-NH2 (HSDAVFTEQYTXLRXQLAXXXYLQSIXCXGGPSSGAPPPC; C6 acyl, non-natural residues, two PEG20K, C-terminal amide; Synthetic sequence PEGylated VPAC2 receptor agonist) [Agonist P588] | 311 | 406 | 54 | 
7 | C6-HSDAVFTEQY(OMe)TOrnLRAibQLAAbuAibOrnY(OMe)LQSIOrnC(PEG40K)OrnGGPSSGAPPPS-NH2 (HSDAVFTEQYTXLRXQLAXXXYLQSIXCXGGPSSGAPPPS; C6 acyl, non-natural residues, PEG40K, C-terminal amide; Synthetic sequence PEGylated VPAC2 receptor agonist) [Agonist P584] | 67.2 | 188 | 51.2 | 
8 | C6-HSDAVFTEQY(OMe)TOrnLRAibQC(PEG20K)AAAibOrnYLQSIOrnOrnGGPSSGAPPPC(PEG20K)-NH2 (HSDAVFTEQYTXLRXQCAAXXYLQSIXXGGPSSGAPPPC; C6 acyl, two PEG20K, C-terminal amide; Synthetic sequence PEGylated VPAC2 receptor agonist) [Agonist P568] | 250 | > 1000 | 129 | 
